No end group written: not given here. *: point of attachment. For = O=C*
Molecular target: T1, C-terminally His-tagged N-formyl peptide receptor (UniProt P21462 1-350)
T1 construct: Expressed in transfected U937 cells; also called C-His FPR; His6 FPR
T1 sequence: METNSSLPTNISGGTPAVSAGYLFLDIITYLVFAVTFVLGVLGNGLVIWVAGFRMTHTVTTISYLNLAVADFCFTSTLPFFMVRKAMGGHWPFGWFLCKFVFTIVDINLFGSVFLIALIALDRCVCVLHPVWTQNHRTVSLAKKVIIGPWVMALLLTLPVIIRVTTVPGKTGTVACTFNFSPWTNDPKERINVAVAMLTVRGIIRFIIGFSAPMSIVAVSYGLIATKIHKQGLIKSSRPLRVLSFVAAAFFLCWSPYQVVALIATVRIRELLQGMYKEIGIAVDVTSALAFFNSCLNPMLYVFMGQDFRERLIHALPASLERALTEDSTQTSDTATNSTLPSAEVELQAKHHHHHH
Assay: flow cytometry; fMLFK-FITC on C-His FPR silica particles, optimal receptor input

B1: formyl-met-leu-phe-lys-FITC (peptide)
peptide: For-MLFK
modifications: also: FITC label, attachment site not given here
notes: Bought from Peninsula Laboratories; also called fMLFK-FITC; fluorescent formyl peptide
fluorescent ligand signal to background ratio: ≥ 30 ratio (x:1)
